Measured values published in patent publication US20210371467A1.

Tests used:
[1] = molecular target: Npu^C-CFN (Nostoc puminciforme PCC73102 (Npu)); test: cell-based or functional assay
[2] = molecular target: Ssp^C A136S-CFN (Synechocystis Species PCC6803 (Ssp)); test: cell-based or functional assay

Sequence of Npu^C-CFN (Nostoc puminciforme PCC73102 (Npu)) (chain, as listed by the source): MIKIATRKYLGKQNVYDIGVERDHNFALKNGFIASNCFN

protein trans-splicing half-life (t1/2) at 30° C., in vitro PTS assay [1]: 50 s | rate of branch resolution [2]: 2 fold
Substance: Npu^N (AEY-Npu^N, product of plasmid 2 after cleavage of the His6-SUMO tag)
